From patent US11541126B1, “Anti-ASGR1 antibody TLR8 agonist comprising conjugates and uses thereof” (Silverback Therapeutics, Inc., priority 2020, dated 2023)

T1: HepG2 cells (which express ASGR1) (Homo sapiens, UniProt P07306)
T1 construct: endogenous in cells; host or cells: HepG2
T1 sequence (P07306 1-291): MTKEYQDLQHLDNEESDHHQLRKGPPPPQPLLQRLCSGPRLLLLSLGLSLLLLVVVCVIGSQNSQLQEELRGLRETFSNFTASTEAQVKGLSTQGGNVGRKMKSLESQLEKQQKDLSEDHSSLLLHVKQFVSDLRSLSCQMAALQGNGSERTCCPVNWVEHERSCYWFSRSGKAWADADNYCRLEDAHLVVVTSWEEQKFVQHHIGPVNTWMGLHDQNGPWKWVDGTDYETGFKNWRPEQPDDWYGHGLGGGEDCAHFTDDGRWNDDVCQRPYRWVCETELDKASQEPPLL


biological target: T1, HepG2 cells (which express ASGR1); experiment: Guava HepG2 cell binding screen of humanized anti-ASGR1 clones; design: unit not given here; details: humanized G2D clones (Table 5); two numbers per cell, not explained
Experimental: Hybridomas producing monoclonal antibodies (mAbs) specific for human ASGR1 were prepared from Balb/C mice immunized with ASGR1-AviHis at a service provider using their propriety protocol. Antibody heavy and light chain sequences were obtained, amplified, and cloned. Clone supernatants containing the expressed mAbs were screened for binding to a human ASGR1-IgG1Fc fusion protein, and those with a positive signal as measured by enzyme linked immunosorbent assay (ELISA) were screened for cell binding on HepG2 cells (which express ASGR1).

Molecule	Guava HepG2 Screen
hzG2D-33: humanized G2D clone; "G2D VL region ... of clones 1-16, 19-21, 26-29, 31, and 33 ... grafted into the human germline sequence VKI-L1 with JK4" (antibody, V domains shown, Synthetic sequence hzG2.51D VH R66K, V67A, T68S, I69L, R71V, R84T, A93T, R94S; Synthetic sequence hzG2D VLa) VH: QVQLVQSGAEVKKPGASVKVSCKASGYTFTGYYMHWVRQAPGQRLEWMGRINPNNGATNYNQNFKDKASLTVDTSASTAYMELSSLTSEDTAVYYCTSVNFYYWGQGTTVTVSS VL: DIQMTQSPSSLSASVGDRVTITCKASQVINSYLSWFQQKPGKAPKSLIYRANTLVDGVPSRFSGSGSGTDFTLTISSLQPEDFATYYCLQYAEFPYTFGGGTKVEIK	164/85
hzG2D-9: humanized G2D clone; "G2D VL region ... of clones 1-16, 19-21, 26-29, 31, and 33 ... grafted into the human germline sequence VKI-L1 with JK4" (antibody, V domains shown, Synthetic sequence hzG2.40D VH R66K, V67A, A93T, R94S, V109L; Synthetic sequence hzG2D VLa) VH: QVQLVQSGAEVKKPGASVKVSCKASGYTFTGYYMHWVRQAPGQRLEWMGRINPNNGATNYNQNFKDKATITRDTSASTAYMELSSLRSEDTAVYYCTSVNFYYWGQGTTLTVSS VL: DIQMTQSPSSLSASVGDRVTITCKASQVINSYLSWFQQKPGKAPKSLIYRANTLVDGVPSRFSGSGSGTDFTLTISSLQPEDFATYYCLQYAEFPYTFGGGTKVEIK	155/117
hzG2D-7: humanized G2D clone; "G2D VL region ... of clones 1-16, 19-21, 26-29, 31, and 33 ... grafted into the human germline sequence VKI-L1 with JK4" (antibody, V domains shown, Synthetic sequence hzG2.2D VH T28S, R66K, V67A, V109L; Synthetic sequence hzG2D VLa) VH: QVQLVQSGAEVKKPGASVKVSCKASGYSFTGYYMHWVRQAPGQRLEWMGRINPNNGATNYNQNFKDKATITRDTSASTAYMELSSLRSEDTAVYYCARVNFYYWGQGTTLTVSS VL: DIQMTQSPSSLSASVGDRVTITCKASQVINSYLSWFQQKPGKAPKSLIYRANTLVDGVPSRFSGSGSGTDFTLTISSLQPEDFATYYCLQYAEFPYTFGGGTKVEIK	46/22
hzG2D-5: humanized G2D clone; "G2D VL region ... of clones 1-16, 19-21, 26-29, 31, and 33 ... grafted into the human germline sequence VKI-L1 with JK4" (antibody, V domains shown, Synthetic sequence hzG2.8D VH T28S, A93T, R94S, V109L; Synthetic sequence hzG2D VLa) VH: QVQLVQSGAEVKKPGASVKVSCKASGYSFTGYYMHWVRQAPGQRLEWMGRINPNNGATNYNQNFKDRVTITRDTSASTAYMELSSLRSEDTAVYYCTSVNFYYWGQGTTLTVSS VL: DIQMTQSPSSLSASVGDRVTITCKASQVINSYLSWFQQKPGKAPKSLIYRANTLVDGVPSRFSGSGSGTDFTLTISSLQPEDFATYYCLQYAEFPYTFGGGTKVEIK	91/55
hzG2D-8: humanized G2D clone; "G2D VL region ... of clones 1-16, 19-21, 26-29, 31, and 33 ... grafted into the human germline sequence VKI-L1 with JK4" (antibody, V domains shown, Synthetic sequence hzG2.6D VH T28S, T68S, I69L, R71V, V109L; Synthetic sequence hzG2D VLa) VH: QVQLVQSGAEVKKPGASVKVSCKASGYSFTGYYMHWVRQAPGQRLEWMGRINPNNGATNYNQNFKDRVSLTVDTSASTAYMELSSLRSEDTAVYYCARVNFYYWGQGTTLTVSS VL: DIQMTQSPSSLSASVGDRVTITCKASQVINSYLSWFQQKPGKAPKSLIYRANTLVDGVPSRFSGSGSGTDFTLTISSLQPEDFATYYCLQYAEFPYTFGGGTKVEIK	31/21
hzG2D-6: humanized G2D clone; "G2D VL region ... of clones 1-16, 19-21, 26-29, 31, and 33 ... grafted into the human germline sequence VKI-L1 with JK4" (antibody, V domains shown, Synthetic sequence hzG2.43D VH T68S, I69L, R71V, V109L; Synthetic sequence hzG2D VLa) VH: QVQLVQSGAEVKKPGASVKVSCKASGYTFTGYYMHWVRQAPGQRLEWMGRINPNNGATNYNQNFKDRVSLTVDTSASTAYMELSSLRSEDTAVYYCARVNFYYWGQGTTLTVSS VL: DIQMTQSPSSLSASVGDRVTITCKASQVINSYLSWFQQKPGKAPKSLIYRANTLVDGVPSRFSGSGSGTDFTLTISSLQPEDFATYYCLQYAEFPYTFGGGTKVEIK	39/23
hzG2D-10: humanized G2D clone; "G2D VL region ... of clones 1-16, 19-21, 26-29, 31, and 33 ... grafted into the human germline sequence VKI-L1 with JK4" (antibody, V domains shown, Synthetic sequence hzG2.44D VH T68S, I69L, R71V, A93T, R94S, V109L; Synthetic sequence hzG2D VLa) VH: QVQLVQSGAEVKKPGASVKVSCKASGYTFTGYYMHWVRQAPGQRLEWMGRINPNNGATNYNQNFKDRVSLTVDTSASTAYMELSSLRSEDTAVYYCTSVNFYYWGQGTTLTVSS VL: DIQMTQSPSSLSASVGDRVTITCKASQVINSYLSWFQQKPGKAPKSLIYRANTLVDGVPSRFSGSGSGTDFTLTISSLQPEDFATYYCLQYAEFPYTFGGGTKVEIK	149/63
hzG2D-3: humanized G2D clone; "G2D VL region ... of clones 1-16, 19-21, 26-29, 31, and 33 ... grafted into the human germline sequence VKI-L1 with JK4" (antibody, V domains shown, Synthetic sequence hzG2.45D VH A93T, R94S, V109L; Synthetic sequence hzG2D VLa) VH: QVQLVQSGAEVKKPGASVKVSCKASGYTFTGYYMHWVRQAPGQRLEWMGRINPNNGATNYNQNFKDRVTITRDTSASTAYMELSSLRSEDTAVYYCTSVNFYYWGQGTTLTVSS VL: DIQMTQSPSSLSASVGDRVTITCKASQVINSYLSWFQQKPGKAPKSLIYRANTLVDGVPSRFSGSGSGTDFTLTISSLQPEDFATYYCLQYAEFPYTFGGGTKVEIK	131/95
hzG2D-2: humanized G2D clone; "G2D VL region ... of clones 1-16, 19-21, 26-29, 31, and 33 ... grafted into the human germline sequence VKI-L1 with JK4" (antibody, V domains shown, Synthetic sequence hzG2.1D VH T28S, V109L; Synthetic sequence hzG2D VLa) VH: QVQLVQSGAEVKKPGASVKVSCKASGYSFTGYYMHWVRQAPGQRLEWMGRINPNNGATNYNQNFKDRVTITRDTSASTAYMELSSLRSEDTAVYYCARVNFYYWGQGTTLTVSS VL: DIQMTQSPSSLSASVGDRVTITCKASQVINSYLSWFQQKPGKAPKSLIYRANTLVDGVPSRFSGSGSGTDFTLTISSLQPEDFATYYCLQYAEFPYTFGGGTKVEIK	38/20
hzG2D-4: humanized G2D clone; "G2D VL region ... of clones 1-16, 19-21, 26-29, 31, and 33 ... grafted into the human germline sequence VKI-L1 with JK4" (antibody, V domains shown, Synthetic sequence hzG2.39D VH R66K, V67A, V109L; Synthetic sequence hzG2D VLa) VH: QVQLVQSGAEVKKPGASVKVSCKASGYTFTGYYMHWVRQAPGQRLEWMGRINPNNGATNYNQNFKDKATITRDTSASTAYMELSSLRSEDTAVYYCARVNFYYWGQGTTLTVSS VL: DIQMTQSPSSLSASVGDRVTITCKASQVINSYLSWFQQKPGKAPKSLIYRANTLVDGVPSRFSGSGSGTDFTLTISSLQPEDFATYYCLQYAEFPYTFGGGTKVEIK	55/22
hzG2D-34: humanized G2D clone; "G2D VL region ... of clones 22, 23, 30, 32, and 34-37 ... grafted into the human germline sequence VKI-O2 with JK4" (antibody, V domains shown, Synthetic sequence hzG2.51D VH R66K, V67A, T68S, I69L, R71V, R84T, A93T, R94S; Synthetic sequence hzG2D VLb) VH: QVQLVQSGAEVKKPGASVKVSCKASGYTFTGYYMHWVRQAPGQRLEWMGRINPNNGATNYNQNFKDKASLTVDTSASTAYMELSSLTSEDTAVYYCTSVNFYYWGQGTTVTVSS VL: DIQMTQSPSSLSASVGDRVTITCKASQVINSYLSWYQQKPGKAPKLLIYRANTLVDGVPSRFSGSGSGTDFTLTISSLQPEDFATYYCLQYAEFPYTFGGGTKVEIK	194/109
